What follows are sequences tested on Escherichia coli TOP10 (assay: shrunken log2 fold change of peptide-encoding DNA abundance (4.5 h post-induction vs induction); higher = less antimicrobial activity (less host growth inhibition)). Details: time post-induction: 4.5 h; library: site-saturation at positions 5, 18, 19, 20.
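Further: peptides expressed intracellularly from a pBAD plasmid library in pooled LB shake-flask culture, induced with 0.3% L-arabinose, DNA abundance read by NGS, three biological replicates, DESeq2 with apeglm shrinkage.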

Sequence	shrunken log2 fold change
RRIRERPPRLPRPRPRPTSIPRP	-0.19
RRIRKRPPRLPRPRPRPAWHPRP	0.378
RRIRGRPPRLPRPRPRPVPYPRP	0.11
RRIRHRPPRLPRPRPRPFPSPRP	0.0517
RRIRLRPPRLPRPRPRPFRPPRP	0.0752
RRIRNRPPRLPRPRPRPWLQPRP	-0.0113
RRIRDRPPRLPRPRPRPKSSPRP	0.0319
RRIRCRPPRLPRPRPRPYELPRP	-0.18
RRIRLRPPRLPRPRPRPVQCPRP	0.079
RRIRPRPPRLPRPRPRPCIEPRP	-0.291
RRIRDRPPRLPRPRPRPEQSPRP	0.964
RRIRHRPPRLPRPRPRPVWMPRP	-0.243
RRIRSRPPRLPRPRPRPVEAPRP	-0.0651
RRIRKRPPRLPRPRPRPKRWPRP	0.906
RRIRFRPPRLPRPRPRPDNWPRP	-0.25
RRIRCRPPRLPRPRPRPYYVPRP	-0.519
RRIRQRPPRLPRPRPRPFVFPRP	-0.273
RRIRERPPRLPRPRPRPWIFPRP	-0.101
RRIRHRPPRLPRPRPRPQFTPRP	-0.182
RRIRQRPPRLPRPRPRPTTYPRP	-0.282
RRIRTRPPRLPRPRPRPGFFPRP	0.147
RRIRGRPPRLPRPRPRPLIFPRP	0.404
RRIRGRPPRLPRPRPRPEPCPRP	0.795
RRIRGRPPRLPRPRPRPQMRPRP	0.899
RRIRTRPPRLPRPRPRPFKEPRP	-0.125

Sequence	shrunken log2 fold change
RRIRFRPPRLPRPRPRPKEAPRP	0.084
RRIRVRPPRLPRPRPRPLIIPRP	-0.445
RRIRHRPPRLPRPRPRPENNPRP	-0.304
RRIRYRPPRLPRPRPRPMSWPRP	-0.0422
RRIRSRPPRLPRPRPRPWCAPRP	0.0451
RRIRRRPPRLPRPRPRPAAQPRP	0.462
RRIRMRPPRLPRPRPRPSGIPRP	0.0258
RRIRPRPPRLPRPRPRPIINPRP	-0.909
RRIRARPPRLPRPRPRPFMWPRP	0.065
RRIRARPPRLPRPRPRPKKRPRP	0.626
RRIRWRPPRLPRPRPRPIAQPRP	0.582
RRIRERPPRLPRPRPRPTPCPRP	0.0922
RRIRHRPPRLPRPRPRPNFHPRP	-0.407
RRIRQRPPRLPRPRPRPPWFPRP	-0.018
RRIRNRPPRLPRPRPRPMELPRP	-0.182
RRIRDRPPRLPRPRPRPAGSPRP	0.19
RRIRPRPPRLPRPRPRPFLTPRP	-0.254
RRIRNRPPRLPRPRPRPGPFPRP	0.00962
RRIRWRPPRLPRPRPRPGRIPRP	0.298
RRIRYRPPRLPRPRPRPAAPPRP	0.726
RRIRPRPPRLPRPRPRPSGNPRP	-0.273
RRIRERPPRLPRPRPRPKAPPRP	0.124
RRIRQRPPRLPRPRPRPYVHPRP	-0.258
RRIRSRPPRLPRPRPRPIIWPRP	-0.174
RRIRWRPPRLPRPRPRPTPNPRP	0.519

Sequence	shrunken log2 fold change
RRIRCRPPRLPRPRPRPCQTPRP	-0.7
RRIRLRPPRLPRPRPRPKKEPRP	-0.0307
RRIRYRPPRLPRPRPRPDWYPRP	-0.968
RRIRIRPPRLPRPRPRPWPIPRP	-0.0934
RRIRDRPPRLPRPRPRPHSFPRP	0.0961
RRIRIRPPRLPRPRPRPGEPPRP	-0.0228
RRIRWRPPRLPRPRPRPWTAPRP	0.306
RRIRRRPPRLPRPRPRPMGEPRP	0.0186
RRIRMRPPRLPRPRPRPCAAPRP	2.26
RRIRGRPPRLPRPRPRPQKSPRP	0.316
RRIRCRPPRLPRPRPRPAARPRP	0.392
RRIRDRPPRLPRPRPRPYLEPRP	-0.0399
RRIRFRPPRLPRPRPRPTPWPRP	0.421
RRIRMRPPRLPRPRPRPEPAPRP	3.51
RRIRLRPPRLPRPRPRPSERPRP	-0.0849
RRIRCRPPRLPRPRPRPWYRPRP	-0.705
RRIRHRPPRLPRPRPRPNWLPRP	-0.165
RRIRHRPPRLPRPRPRPGNGPRP	0.278
RRIRLRPPRLPRPRPRPSFHPRP	-0.457
RRIRFRPPRLPRPRPRPMKRPRP	0.347
RRIRYRPPRLPRPRPRPIGQPRP	0.013
RRIRIRPPRLPRPRPRPVPKPRP	0.0597
RRIRSRPPRLPRPRPRPSYGPRP	-0.0636
RRIRQRPPRLPRPRPRPIWGPRP	-0.105
RRIRYRPPRLPRPRPRPCTWPRP	-0.303

Sequence	shrunken log2 fold change
RRIRHRPPRLPRPRPRPEIRPRP	0.0924
RRIRDRPPRLPRPRPRPQWRPRP	0.21
RRIRSRPPRLPRPRPRPNTGPRP	-0.336
RRIRVRPPRLPRPRPRPDAGPRP	0.13
RRIRDRPPRLPRPRPRPLSFPRP	0.0422
RRIRMRPPRLPRPRPRPMTKPRP	0.0956
RRIRMRPPRLPRPRPRPAGHPRP	1.24
RRIRLRPPRLPRPRPRPQCDPRP	-0.118
RRIRRRPPRLPRPRPRPQFTPRP	-0.0485
RRIRMRPPRLPRPRPRPAFAPRP	0.738
RRIRCRPPRLPRPRPRPHSHPRP	-0.307
RRIRNRPPRLPRPRPRPVEMPRP	0.0554
RRIRTRPPRLPRPRPRPGTRPRP	0.2
RRIRMRPPRLPRPRPRPSFSPRP	-0.176
RRIRSRPPRLPRPRPRPVQRPRP	0.363
RRIRRRPPRLPRPRPRPDGLPRP	0.771
RRIRMRPPRLPRPRPRPDMCPRP	1.86
RRIRQRPPRLPRPRPRPTDDPRP	-0.0703
RRIRHRPPRLPRPRPRPTVLPRP	-0.109
RRIRKRPPRLPRPRPRPTQFPRP	1.1
RRIRLRPPRLPRPRPRPTYRPRP	-0.266
RRIRGRPPRLPRPRPRPQLMPRP	0.509
RRIRLRPPRLPRPRPRPAKWPRP	0.388
RRIRLRPPRLPRPRPRPVSRPRP	0.0317
RRIRERPPRLPRPRPRPTSSPRP	-0.303

Sequence	shrunken log2 fold change
RRIRHRPPRLPRPRPRPPTLPRP	0.246
RRIRWRPPRLPRPRPRPNRFPRP	-0.0274
RRIRMRPPRLPRPRPRPVADPRP	3
RRIRHRPPRLPRPRPRPPVEPRP	0.126
RRIRWRPPRLPRPRPRPLATPRP	0.766
RRIRGRPPRLPRPRPRPPDSPRP	0.952
RRIRKRPPRLPRPRPRPAFPPRP	0.165
RRIRKRPPRLPRPRPRPHACPRP	0.0691
RRIRRRPPRLPRPRPRPYSRPRP	-0.391
RRIRSRPPRLPRPRPRPKPHPRP	0.213
RRIRWRPPRLPRPRPRPHHEPRP	-0.262
RRIRFRPPRLPRPRPRPQWVPRP	-0.053
RRIRMRPPRLPRPRPRPAFEPRP	0.763
RRIRRRPPRLPRPRPRPSFHPRP	-0.182
RRIRQRPPRLPRPRPRPCTFPRP	-0.121
RRIRTRPPRLPRPRPRPLSGPRP	-0.0581
RRIRERPPRLPRPRPRPVCLPRP	-0.0994
RRIRNRPPRLPRPRPRPQQNPRP	0.00594
RRIRDRPPRLPRPRPRPCHCPRP	-0.158
RRIRSRPPRLPRPRPRPYVYPRP	-0.852
RRIRRRPPRLPRPRPRPADMPRP	-0.0139
RRIRHRPPRLPRPRPRPMFYPRP	-0.446
RRIRPRPPRLPRPRPRPHHLPRP	-0.0444
RRIRGRPPRLPRPRPRPCLEPRP	0.546
RRIRPRPPRLPRPRPRPKEQPRP	0.183

Sequence	shrunken log2 fold change
RRIRQRPPRLPRPRPRPLEGPRP	-0.0228
RRIRHRPPRLPRPRPRPCYYPRP	-0.258
RRIRPRPPRLPRPRPRPYSMPRP	-1.43
RRIRWRPPRLPRPRPRPNWWPRP	0.182
RRIRIRPPRLPRPRPRPEMCPRP	0.0321
RRIRWRPPRLPRPRPRPQQKPRP	-0.0581
RRIRNRPPRLPRPRPRPTWNPRP	-0.0528
RRIRMRPPRLPRPRPRPPICPRP	0.292
RRIRSRPPRLPRPRPRPMLSPRP	0.149
RRIRGRPPRLPRPRPRPQDPPRP	0.337
RRIRSRPPRLPRPRPRPWGAPRP	0.0522
RRIRHRPPRLPRPRPRPCWTPRP	-0.237
RRIRRRPPRLPRPRPRPDWTPRP	-0.133
RRIRQRPPRLPRPRPRPFIEPRP	-0.0062
RRIRNRPPRLPRPRPRPPCAPRP	-0.0473
RRIRYRPPRLPRPRPRPGDEPRP	-0.0823
RRIRERPPRLPRPRPRPPAKPRP	0.176
RRIRMRPPRLPRPRPRPCHTPRP	0.0555
RRIRSRPPRLPRPRPRPPFYPRP	-0.154
RRIRVRPPRLPRPRPRPEQDPRP	0.173
RRIRMRPPRLPRPRPRPPSTPRP	0.97
RRIRQRPPRLPRPRPRPQLGPRP	-0.194
RRIRIRPPRLPRPRPRPQWDPRP	0.92
RRIRLRPPRLPRPRPRPDHPPRP	-0.123
RRIRQRPPRLPRPRPRPVNQPRP	-0.0686
